Source: patent US20240317834A1, “COMPOSITIONS AND METHODS FOR NEUROLOGICAL DISEASES” (CODA BIOTHERAPEUTICS, INC., priority 2020, published 2024)
Positions count from the first letter of the chain named. Numbers in names are those of the source.

B1: CODA1138: engineered chimeric LGIC receptor, W77F, R101F, L131D in SEQ ID NO: 33 (protein)
chain: MRCSPGGVWLALAASLLHVSLQGEFQRKLYKELVKNYNPLERPVANDSQPLTVYFSLSLLQIMDVDEKNQVLTTNIFLQMSWTDHYLQWNVSEYPGVKTVFFPDGQIWKPDILLYNSADERFDATFHTNVDVNSSGHCQYLPPGIFKSSCPMDLKNFPMDVQTCKLKFGSWSYGGWSLDLQMQEADISGYIPNGEWDLVGIPGKRSERFYECCKEPYPDVTFTVTMRRRMGYYLIQMYIPSLLIVILSWISFWINMDAAPARVGLGITTVLTMTTQSSGSRASLPKVSYVKAIDIWMAVCLLFVFSALLEYAAVNFVSRQHKELLRFRRKRRHHKSPMLNLFQEDEAGEGRFNFSAYGMGPACLQAKDGISVKGANNSNTTNPPPAPSKSPEEMRKLFIQRAKKIDKISRIGFPMAFLIFNMFYWIIYKIVRREDVHNQ
modifications: synthetic sequence of chimeric LGIC
B2: CODA1173: engineered chimeric LGIC receptor, S172D, Y210W in SEQ ID NO: 33 (protein)
chain: B1 chain with F77W, F101R, D131L, S172D, Y210W
modifications: synthetic sequence of chimeric LGIC
B3: CODA1157: engineered chimeric LGIC receptor, Q139E, S172D in SEQ ID NO: 33 (protein)
chain: B1 chain with F77W, F101R, D131L, Q139E, S172D
modifications: synthetic sequence of chimeric LGIC

System: Lenti-X 293T cells
Assay: YFP fluorescence quenching anion reporter plate reader assay of engineered receptors stimulated with acetylcholine or a non-native ligand
Format: cell-based
Details: for percent quench of YFP fluorescence, 10 uM ach: acetylcholine 10 uM; for percent quench of YFP fluorescence, 30 uM ach: acetylcholine 30 uM; for percent quench of YFP fluorescence, 100 uM ach: acetylcholine 100 uM; for percent quench of YFP fluorescence, 300 uM ach: acetylcholine 300 uM; for percent quench of YFP fluorescence, 1 mM ach: acetylcholine 1 mM; for percent quench of YFP fluorescence, 3 mM ach: acetylcholine 3 mM
How it was run: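 YFP quench was followed for about 1 min 43 s after ligand delivered in iodide-based ECS, pH 7.2. Values are end-of-read fluorescence (last 10 s) divided by the pre-ligand baseline (15 s). Cells were LX293T, transfected with receptor DNA a day before the assay.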

| Molecule | YFP fluorescence quenching using CNL001 (1 nM CNL001, first column) | YFP fluorescence quenching using CNL001 (1 nM CNL001, second column) | YFP fluorescence quenching using Varenicline (3 nM var, first column) | YFP fluorescence quenching using Varenicline (3 nM var, second column) | YFP fluorescence quenching using CNL001 (10 nM CNL001, first column) | YFP fluorescence quenching using CNL001 (10 nM CNL001, second column) | YFP fluorescence quenching using Varenicline (30 nM var, first column) | YFP fluorescence quenching using Varenicline (30 nM var, second column) | YFP fluorescence quenching using CNL001 (50 nM CNL001, first column) | YFP fluorescence quenching using CNL001 (50 nM CNL001, second column) | YFP fluorescence quenching using ABT-126 (50 nM abt) | YFP fluorescence quenching using CNL001 (100 nM CNL001, first column) | YFP fluorescence quenching using CNL001 (100 nM CNL001, second column) | YFP fluorescence quenching using CNL002 (100 nM CNL002) | YFP fluorescence quenching using ABT-126 (100 nM abt) | YFP fluorescence quenching using ABT-126 (300 nM abt) | YFP fluorescence quenching using Varenicline (300 nM var, first column) | YFP fluorescence quenching using Varenicline (300 nM var, second column) | YFP fluorescence quenching using Varenicline (500 nM var, first column) | YFP fluorescence quenching using Varenicline (500 nM var, second column) | other results |
| --- | --- | --- | --- | --- | --- | --- | --- | --- | --- | --- | --- | --- | --- | --- | --- | --- | --- | --- | --- | --- | --- |
| B1 | −6.175% | 5.89% | 3.893 | 1.107 | −2.032% | 7.601% | 0.972 | 0.872 | 9.263% | 4.423% | −11.71% | 24% | 30.448% | 81.66% | −5.13% | 15.09% | 2.282 | −0.288 | 3.637 | −1.804 | YFP fluorescence quenching using CNL002 (1 nM CNL002): −2.209%; YFP fluorescence quenching using CNL002 (10 nM CNL002): 43.044%; YFP fluorescence quenching using CNL002 (50 nM CNL002): 73.418%; YFP fluorescence quenching using CNL001 (1 uM CNL001, first column): 73.823%; YFP fluorescence quenching using CNL001 (1 uM CNL001, second column): 73.271%; YFP fluorescence quenching using CNL002 (1 uM CNL002): 81.69%; YFP fluorescence quenching using ABT-126 (1 uM abt): 56.63%; YFP fluorescence quenching using Varenicline (1 uM var, first column): −1.84; YFP fluorescence quenching using Varenicline (1 uM var, second column): 6.36; YFP fluorescence quenching using ABT-126 (10 uM abt): 75.93%; percent quench of YFP fluorescence, 10 uM ach: −12.92%; percent quench of YFP fluorescence, 30 uM ach: −15.36%; percent quench of YFP fluorescence, 100 uM ach: −19.35%; percent quench of YFP fluorescence, 300 uM ach: −14.79%; percent quench of YFP fluorescence, 1 mM ach: 37.5%; percent quench of YFP fluorescence, 3 mM ach: 61.73% |
| B2 | 16.321% | 30.264% | 9.211 | 7.193 | 61.978% | 65.343% | 7.821 | 9.078 | 73.006% | 74.903% | 5.15% | 76% | 76.759% | 70.15% | 25.08% | 66.86% | 6.933 | 8.36 | 5.501 | 7.04 | YFP fluorescence quenching using CNL001 (1 uM CNL001, first column): 76.928%; YFP fluorescence quenching using CNL001 (1 uM CNL001, second column): 76.619%; YFP fluorescence quenching using CNL002 (1 uM CNL002): 77.33%; YFP fluorescence quenching using ABT-126 (1 uM abt): 66.94%; YFP fluorescence quenching using Varenicline (1 uM var, first column): 7.174; YFP fluorescence quenching using Varenicline (1 uM var, second column): 5.185; YFP fluorescence quenching using ABT-126 (10 uM abt): 78.67%; percent quench of YFP fluorescence, 1 mM ach: −6.12%; percent quench of YFP fluorescence, 3 mM ach: 11.31% |
| B3 | 68.362% | 69.495% | −0.225 | −1.954 | 75.078% | 74.193% | 1.269 | 5.972 | 77.481% | 77.205% | −26.77% | 77% | 77.042% | 80.62% | −24.64% | −10.64% | 6.84 | 5.943 | 8.717 | 6.41 | YFP fluorescence quenching using CNL001 (1 uM CNL001, first column): 78.2%; YFP fluorescence quenching using CNL001 (1 uM CNL001, second column): 76.244%; YFP fluorescence quenching using CNL002 (1 uM CNL002): 81.32%; YFP fluorescence quenching using ABT-126 (1 uM abt): 19.57%; YFP fluorescence quenching using Varenicline (1 uM var, first column): 5.635; YFP fluorescence quenching using Varenicline (1 uM var, second column): 7.068; YFP fluorescence quenching using ABT-126 (10 uM abt): 55.64%; percent quench of YFP fluorescence, 10 uM ach: −36.89%; percent quench of YFP fluorescence, 30 uM ach: −37.78%; percent quench of YFP fluorescence, 100 uM ach: −25.67%; percent quench of YFP fluorescence, 300 uM ach: −18.94%; percent quench of YFP fluorescence, 1 mM ach: 16.38%; percent quench of YFP fluorescence, 3 mM ach: 45.71% |
